Here are results for 23 sequences from the supplement of paper PMC9170038.

The data set concerns MS2 coat protein. The data set is described as follows: apparent KD of MS2 coat protein; designed switch direction (-1 OFF switch, 1 ON switch): -1; higher = weaker reporter binding. In a few lines: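 Stalled E. coli RNA polymerase transcribed designed RNA switches on Illumina chips, which were then titrated with SNAP-549-labelled MS2 coat protein, doubling from 0.7 or 1.5 nM to 3 µM. Steps lasted from 0.8–1.5 h at the lowest concentration to 10–20 min at the highest. The apparent KD is each design's median over clusters of curve-fitted normalised fluorescence.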

Setting [1] is: Eterna round: R95, input ligand: microRNA oligo, concentration not stated.
Setting [2] is: input ligand: microRNA oligo, concentration not stated.
The mark [3] stands for this setting: Eterna round: R95, input ligand: FMN 200 uM.
Where [4] appears, read: Eterna round: R95, input ligand: none.

With “CUUAAGUCAGGAUAUCAGGAGCAAGCUUAACGGGCACUCGCUGAGAAGGGACAUGAGGAUCACCCAUGUGCUCG [Eternabot (L2) Solution 17] (Eterna round: R97, puzzle: Exclusion 4)”, the “apparent KD of MS2 coat protein” value (input ligand: FMN 200 uM) is 52.3 nM and the “apparent KD of MS2 coat protein” value (input ligand: none) was 24.7 nM.
Taken in the same sequence, the figures for “UAUUAGUAAGGAUAUCCCACGUAGGACGAAAGUCCUACGUGGGAGAAGGUACAUGAGGAUCACCCAUGUCUAUU [Mod of Fisker 12 - Jieux - Exclusion 4] (Eterna round: R97, puzzle: Exclusion 4)” were 20.4 nM and 18.7 nM.
Turning to “UUUUUUGUUGUGAGGAUAUCGUAUUCUUUUUGUUACGAGAAGGCACAUGAGGAUCACCCAUGUUUCUUGAUGUU [JR_BMOE4_Sub067] (puzzle: Brourd's mod of Exclusion 4)”, under setting [1], the “apparent KD of MS2 coat protein” value is 15.3 nM.
In the case of “AGCUAGUGCCGAGGAUAUACAUGAGGAUCACCCAUGUAAGCCAGUCGGUUUCUGACUGGCAAGAUGUAGAAGGCGGCGUUGGCA [JL ENG2 1.50] (Eterna round: R96, puzzle: Exclusion NG 2)”, the “apparent KD of MS2 coat protein” value by setting is: (input ligand: FMN 200 uM) 57.1 nM; under setting [2], 9.57 nM; (input ligand: none) 13.5 nM.
Take “AGGAAGCAAGGAUAUACGAGGAGAAGGUGUAGAUUUAAAGGACAUGAGGAUCACCCAUGUAGAAGGUGCGAGAA [JR_Exclu2_Sub047] (puzzle: Exclusion 2)”: the “apparent KD of MS2 coat protein” value by setting is: under setting [3], 62.7 nM; under setting [1], 31.8 nM; under setting [4], 41.4 nM.
Regarding “UUGUUUUUCACAGGAUAUCGCCUCUUAUUACAUGAGGAUCACCCAUGUUUAUUUUGUUACAUGUUCGAGAAGGGUGUAGUCUUU [JR_ExcNG2_Sub047] (Eterna round: R96, puzzle: Exclusion NG 2)”, the “apparent KD of MS2 coat protein” value by setting is: (input ligand: FMN 200 uM) 586 nM; under setting [2], 368 nM; (input ligand: none) 475 nM.
“AAUAGCUAAGGAUAUACAUGAGGAUCACCCAUGUAAAACACUACUUGGAACCGCCUCGGUAGAAGGUAGAAAAU [Arbean] (puzzle: Exclusion 3)”: the “apparent KD of MS2 coat protein” value under setting [1] is 21.5 nM.
As to “GAUGGACAUGAGGAUCACCCAUGUAAGGAUAUACGGUUGGUAGAGAGAGAGAGAAAUGGUAGAAGGUACGGAAA [JR_Exclu1_Sub051] (puzzle: Exclusion 1)”, the “apparent KD of MS2 coat protein” value by setting is: under setting [3], 36.5 nM; under setting [1], 46.6 nM; under setting [4], 50.3 nM.
As for “UUUACAAGCUUUUGAUCCCACAUGAGGAUCACCCAUGUUGCUGCCGGUGACGGUAGCAUAACAAAUGCUCGUCUUAU [JL TOV1 3.55] (Eterna round: R97, puzzle: Sensor, turn-off variant 1)”, the “apparent KD of MS2 coat protein” value is, setting by setting: (input ligand: FMN 200 uM) 846 nM; (input ligand: none) 1160 nM.
“AAGGGUAGGCAGGAUAUCCAGGUCGACACCGCGGGAGAAGGGCUUACAUGAGGAUCACCCAUGUAGGGUGCGAG [EX6 A.2] (Eterna round: R97, puzzle: Exclusion 6)”: the “apparent KD of MS2 coat protein” value reads like this: (input ligand: FMN 200 uM) 253 nM; (input ligand: none) 133 nM.
The matching figures for “CUCUGCACGCUGCGGUCCUACAUGAGGAUCACCCAUGUGGUCUGGUGGCGUGGGUCACCGGACUUGGCUCGUCUUGC [salish99_S_TOV1_R5_051] (Eterna round: R97, puzzle: Sensor, turn-off variant 1)”: 21 nM and 22.7 nM.
Regarding “GAUUUAGAGCAGGAUAUCAUAGAAUUAUAUGAAUGAGAAGGGCUCACAUGAGGAUCACCCAUGUGGUCCUAGAU [JL Dibiri mod 22] (Eterna round: R96, puzzle: Exclusion 6)”, the “apparent KD of MS2 coat protein” value worked out at 235 nM (input ligand: FMN 200 uM), 21.7 nM under setting [2] and 25.4 nM (input ligand: none).
For “AACAGUCUAGAGGAUAUGCUGGAUUAAUAUCUUGCAGAAGGCUGGACAUGAGGAUCACCCAUGUAAAUACUACC [Omei Ex6 A12] (Eterna round: R97, puzzle: Exclusion 6)”, the “apparent KD of MS2 coat protein” value reads like this: (input ligand: FMN 200 uM) 94 nM; (input ligand: none) 31.9 nM.
The matching figures for “UGGCGUUAAGGAUAUACAUGAGGAUCACCCAUGUUUCGGGAGAGCCAUUGAGCCGCAAGUAGAAGGUAGUACCC [Eternabot (L2) Solution 23] (Eterna round: R97, puzzle: Exclusion 3)”: 37.4 nM and 47.9 nM.
Take “ACAUGAGGAUCACCCAUGUCGACGAAAAGGCUCAUGUAGAGUGAGGAUAUGUGAGACGAACGAGAACAGAAGGCACAAGACAGG [Deportation 4 - Jieux - Exclusion NG 3] (Eterna round: R96, puzzle: Exclusion NG 3)”: the “apparent KD of MS2 coat protein” value (input ligand: FMN 200 uM) stood at 85.8 nM, the “apparent KD of MS2 coat protein” value under setting [2] was found to be 58.9 nM and the “apparent KD of MS2 coat protein” value (input ligand: none) turned out to be 52.3 nM.
With “UGUACGAUGCGUGCUGACAUGCGUCGUGCAGCAAGCUUUACAUGAGGAUCACCCAUGUCCUCACUUGCUCGUCUUGU (puzzle: Sensor v3, turn-off variant 2)”, the “apparent KD of MS2 coat protein” value is, setting by setting: under setting [3], 643 nM; under setting [1], 21.3 nM; under setting [4], 490 nM.
The matching figures for “CUCCUCAUGACGCCUAAACACAUGAGGAUCACCCAUGUACAGGCUUUUUGUCGUCUUAUAAUAAAACCGAGGAGGCG [Inletice] (puzzle: Sensor v3, turn-off variant 1)”: 14.6 nM, 65.9 nM and 15 nM.
Take “UGUACUAUGCGUGCUGACAUGCGUAGUGCAGCAGGUGUAACAUGAGGAUCACCCAUGUCCUCAUUUGCUCGUCUUAA [Mat - Sensor v3 - Turn-off var 2 - D14] (puzzle: Sensor v3, turn-off variant 2)”: the “apparent KD of MS2 coat protein” value is 207 nM under setting [3] and 335 nM under setting [1].
For the sequence “AAAUGCAAGCAAAGAUUCUACAUGAGGAUCACCCAUGUGCUCGUCUUAUAAAGUACUAUCACGAAAGUGAUAGUACA [Sensor 3, v1 - 34] (puzzle: Sensor v3, turn-off variant 1)”, the “apparent KD of MS2 coat protein” value under setting [3] was 18.2 nM, the “apparent KD of MS2 coat protein” value under setting [1] was determined as 88.3 nM and the “apparent KD of MS2 coat protein” value under setting [4] is 17.6 nM.
Consider “AUGGGUCCUCUCGGAGCGACAUGAGGAUCACCCAUGUGUGUUGAGGAUAUCCACUGCUCAGGACGGGAGAAGGCAGUGUACUGU [Ex NG3 #86] (Eterna round: R96, puzzle: Exclusion NG 3)”, for which the “apparent KD of MS2 coat protein” value stood at 55.9 nM (input ligand: FMN 200 uM), 32.5 nM under setting [2] and 48.8 nM (input ligand: none).
For the sequence “CAGUACUGAGGAUAUACAUGAGGAUCACCCAUGUGUUCCAGCUAGGAAACUAGCGAAUGUAGAAGGCAGUACUG [jl-ex3-4.22 salish99 mod] (Eterna round: R97, puzzle: Exclusion 3)”, the “apparent KD of MS2 coat protein” value by setting is: (input ligand: FMN 200 uM) 451 nM; (input ligand: none) 355 nM.
As for “UGGGUACUCCAUAGAAGAGACAUGAGGAUCACCCAUGUAGGGCAAGCUUUUUGCUCGUCUUAGGUUGAGGGAUAGGA [JR_SV3TOV1_Sub015] (puzzle: Sensor v3, turn-off variant 1)”, the “apparent KD of MS2 coat protein” value is 166 nM under setting [3], 80.7 nM under setting [1] and 280 nM under setting [4].
Regarding “UUGUUGUAUGUAGGAUAUGCAUAUUAUUAUUAUGCAGAAGGACAUGAGGAUCACCCAUGUAUAUUAUUAUUAUAUGUUAUAUAU [Title] (Eterna round: R96, puzzle: Exclusion NG 1)”, the “apparent KD of MS2 coat protein” value under setting [2] is 20 nM.
